According to US20220220218A1 (JIANGSU HENGRUI MEDICINE, published 2022):
Positions count from the first letter of the chain named.

Biological target: T1, cynomolgus monkey CD73/NT5E protein (His tag), Sino Biological Cat. No. 90192-C08H (cynomolgus monkey, UniProt A0A2K5V5U7 27-547)
T1 construct: also called cynomolgus monkey CD73 protein; cynoCD73; not shown: His tag
T1 sequence: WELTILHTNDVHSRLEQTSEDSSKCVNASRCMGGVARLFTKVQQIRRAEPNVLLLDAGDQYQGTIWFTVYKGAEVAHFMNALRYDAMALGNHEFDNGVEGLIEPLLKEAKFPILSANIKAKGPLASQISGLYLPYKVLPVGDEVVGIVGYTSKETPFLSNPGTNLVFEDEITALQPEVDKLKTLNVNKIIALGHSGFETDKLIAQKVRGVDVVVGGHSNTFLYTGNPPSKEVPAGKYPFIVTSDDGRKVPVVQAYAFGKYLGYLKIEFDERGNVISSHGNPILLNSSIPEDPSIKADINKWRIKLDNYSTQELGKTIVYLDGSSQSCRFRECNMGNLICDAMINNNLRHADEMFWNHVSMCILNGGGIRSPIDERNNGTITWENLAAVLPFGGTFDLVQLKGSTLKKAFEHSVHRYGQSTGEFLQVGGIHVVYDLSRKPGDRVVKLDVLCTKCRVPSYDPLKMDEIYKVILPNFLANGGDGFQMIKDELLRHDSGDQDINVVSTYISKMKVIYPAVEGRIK
Assay: ELISA; cynomolgus monkey CD73 coated on plate
Description: The cross-binding activity of anti-CD73 antibodies to cynomolgus monkey CD73 protein was tested by ELISA assay. The cynomolgus monkey CD73 fusion protein was directly coated onto a 96-well microtiter plate. The signal strength after the addition of the antibody was used to determine the binding activity of the antibody to cynomolgus monkey CD73. The specific experimental procedures were as follows:
Cynomolgus monkey CD73 (Sino Biological, Cat No. 90192-C08H) was diluted with PBS, pH7.4 (Shanghai BasalMedia, Cat No. B320) buffer to a concentration of 2 μg/ml, was added into the 96-well microtiter plate at 50 μl/well, and was incubated in an incubator at 37° C. for 2 hours. The liquid was discarded, 250 μl/well blocking solution (5% skim milk diluted in PBS) was added, and incubated in an incubator at 37° C. for 3 hours or at 4° C. overnight (16-18 hours) for blocking. After the blocking was finished, the blocking solution was discarded, the plate was washed for 5 times with PBST buffer, 50 μl/well of various concentrations of each of the test antibodies (purified hybridoma antibodies or humanized antibodies, diluted with sample diluent) were added, and incubated in an incubator at 37° C. for 1 hour. After the incubation was finished, the plate was washed for 5 times with PBST, 50 μl/well of HRP-labeled goat anti-mouse secondary antibody (Jackson Immuno Research, Cat No. 115-035-003) or goat anti-human secondary antibody (Jackson Immuno Research, Cat No. 109-035-003) diluted with sample diluent was added, and incubated at 37° C. for 1 hour. The plate was washed for 5 times with PBST, 50 μl/well of TMB chromogenic substrate (KPL, Cat No. 52-00-03) was added, incubated at room temperature for 5-10 min, and 50 μl/well of 1M H₂SO₄ was added to stop the reaction. The absorbance value was read by a microplate reader (Molecular Devices, VERSA max) at a wavelength of 450 nm, and the data was analyzed with GraphPad Prism 5. The binding of anti-CD73 antibody to monkey CD73 was calculated as EC50 value.

B1: Hab110.21 (antibody, human IgG1, kappa, V domains shown)
VH: EVQLVQSGAEVKKPGASVKVSCKASGYTFTSYTMHWVRQAPGQRLEWMGYINPNSFYIEYNQKFKDRVTITRDTSASTAYMELSSLRSEDTAVYYCARGDYDLFYDMDNWGQGTTVTVSS
VL: DIQMTQSPSSLSASVGDRVTITCRASQDIGNSLNWLQQKPGKAIKRLIYATFRLDSGVPSRFSGSRSGTEYTLTISSLQPEDFATYYCQQYASFPWTFGGGTKVEIKR
notes: also called humanized antibody of mab110
- EC50: 0.064 nM

B2: Hab127.31d (antibody, human IgG1, kappa, V domains shown)
VH: EVQLVQSGAEVKKPGASVKVSCKASGYTFTAYFMNWVRQAPGQGLEWMGRIYHNKGDTFYSQKFKGRVTMTVDKSTSTVYMELSSLRSEDTAVYYCATSYVGDWGQGTTVTVSS
VL: B1 VL with N31D, K42G, I44L, F52S, R53S, R66G, Q89L
notes: also called humanized antibody of mab127
- EC50: 0.033 nM

B3: Hab108.64 (antibody, human IgG1, kappa, V domains shown)
VH: EVTLKQSGPGLVKPTETLTLTCTVSGFSLSSYGIQWVRQPPGKGLEWLGVIWSGGSADYNAAFISRLTISKDTSKSQVVLTMTNMDPVDTATYYCAGQYGSVWGQGTLVTVSS
VL: DIQMTQSPSSLSASVGDRVTITCRASQDIGDRLNWLQQKPGGAIKRLIYATSSLDSGVPKRFSGSGSGTEYTLTISSLQPEDFATYYCLQYAGSWTFGGGTKVEIKR
notes: also called humanized antibody of mab108
- EC50: 0.033 nM
